Measurements reported in patent US7727972B2, “Methods for determining absorption of cobalamin or analogues thereof” (DrugTech Corporation, priority 2004, dated 2010).

T1: TC-bound 57Co cobalamin (cyanocobalamin-transcobalamin complex) (Homo sapiens, UniProt P20062)
T1 construct: from tissue; host or cells: human donor serum
T1 sequence (P20062 19-427): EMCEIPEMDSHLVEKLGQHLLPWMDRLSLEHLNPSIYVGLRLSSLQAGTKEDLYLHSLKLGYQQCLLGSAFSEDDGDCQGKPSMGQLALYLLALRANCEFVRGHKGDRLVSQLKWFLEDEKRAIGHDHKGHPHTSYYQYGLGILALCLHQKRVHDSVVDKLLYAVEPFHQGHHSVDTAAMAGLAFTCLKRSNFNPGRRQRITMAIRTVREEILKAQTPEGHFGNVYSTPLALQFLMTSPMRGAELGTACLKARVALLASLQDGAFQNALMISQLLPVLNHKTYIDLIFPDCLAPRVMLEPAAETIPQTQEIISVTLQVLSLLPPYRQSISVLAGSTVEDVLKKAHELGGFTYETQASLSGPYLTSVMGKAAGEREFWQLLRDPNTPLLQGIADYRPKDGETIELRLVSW


Experiments:
[1] = molecular target: T1, TC-bound 57Co cobalamin (cyanocobalamin-transcobalamin complex); assay: Release of 57Co cyanocobalamin from transcobalamin using proteases; assay type: biochemical; details: 50 U protease, human donor serum, TC captured on antibody-coated magnetic microspheres; 15 min (chymotrypsin 45 min); FIG. 1
Experimental: 25 μl tracer solution and 2.5 μl cyanocobalamin solution were added to 400 μl human donor serum. Tris-HCl 0.1 M pH 7.4 was run as a control. After addition of 50 μl capturing reagent, the samples were incubated on a coulter mixer for 1 hour at room temperature. The samples were placed in a magnetic rack for 3 minutes for separation of the capturing reagent. Subsequently, the rack was inverted and incubated for another 3 minutes. The supernatant was discarded and 500 μl of washing buffer was added. The samples were vortexed and placed in the magnetic rack for 3 minutes. Subsequently, the rack was inverted again and the samples were incubated for another 3 minutes. After separation, the washing buffer was discarded and 50 U of subtilisin Carlsberg, in 200 μl Tris-HCl 0.1 M pH 7.4 5 mM Ca^2+, was added. After incubation for 15 minutes at 50° C. in a shaking water bath, the samples were put on a magnetic rack for 3 minutes for separation of the capturing reagent. The rack was inverted and incubated for another 3 minutes. The supernatant was discarded and the pellet was counted for 5 minutes on a gamma counter.
Similar experiments were performed with proteinase K (50 U) in Tris-HCl 0.1 M pH 7.4 5 mM Ca^2+ incubated at 37° C., thermolysin (50 U) in Tris-HCl 0.1 M pH 7.4 5 mM Ca^2+ 5 mM Zn^2+, and chymotrypsin (50 U) in Tris-HCl 0.1 M pH 7.4 incubated for 45 min. at 37° C. […]

[2] = test system: Anti haptocorrin antibodies (ELISA); assay: Cross-reactivity of the haptocorrin ELISA towards other cobalamin binding proteins; parameters: species or system rabbit; details: 100 nmol/L in the assay mixture
Experimental: Antibodies. Anti haptocorrin was produced by DakoCytomation A/S, Denmark by immunising rabbits with 200 μg pure haptocorrin produced as previously described (12) and deglycosylated as described above. The gamma globulin fraction was pre-pared (13) from serum obtained after 7 immunisations.
ELISA. The principle of the ELISA assay used was an immobilised capture antibody (0.1 ug gamma globulin/well, rabbit nr F7773) catching the analyte and a biotinylated detection antibody (gamma globulin 3 ug/L, rabbit nr 7772) visualised by avidin/Horse Radish Peroxidase (HRP). Colour development by addition of 3,3′,5,5′-tetramethyl-benzidin was proportional to the concentration of analyte. The assay procedure was as previously described for transcobalamin (14, 15). In brief, calibrator, sample or control (100 μL, final dilution 1:30) was incubated for 1 hour at room temperature prior to washing and incubation for 30 min with the biotinylated detection antibody. The attached biotinylated antibody was detected employing avidin/HRP and colour development was determined by measuring the absorbance at 420 nm and correcting for the absorbance at 620 nm. The calibrator employed was deglycosylated pure human haptocorrin. All samples were run in true duplicates, where deglycosylation was performed on two independent samples.
Samples. […]

Row | Molecule | release of cyanocobalamin from its complex with transcobalamin (counts remaining in the sample) [1] | cross-reactivity in haptocorrin ELISA [2]
1 | Proteinase K: proteinase K from Tritrachium album (EC 3.4.21.64) (Sigma Aldrich) (protein, UniProt P06873 106-384, looked up) Proteinase K: AAQTNAPWGLARISSTSPGTSTYYYDESAGQGSCVYVIDTGIEASHPEFEGRAQMVKTYYYSSRDGNGHGTHCAGTVGSRTYGVAKKTQLFGVKVLDDNGSGQYSTIIAGMDFVASDKNNRNCPKGVVASLSLGGGYSSSVNSAAARLQSSGVMVAVAAGNNNADARNYSPASEPSVCTVGASDRYDRRSSFSNYGSVLDIFGPGTSILSTWIGGSTRSISGTSMATPHVAGLAAYLMTLGKTTAASACRYIADTANKGDLSNIPFGTVNLLAYNNYQA | most effective | 
2 | transcobalamin: cobalamin binding protein; pure TC dissolved in phosphate buffer 0.1 M containing albumin 0.1% (protein, UniProt P20062 19-427, looked up) Transcobalamin-2: EMCEIPEMDSHLVEKLGQHLLPWMDRLSLEHLNPSIYVGLRLSSLQAGTKEDLYLHSLKLGYQQCLLGSAFSEDDGDCQGKPSMGQLALYLLALRANCEFVRGHKGDRLVSQLKWFLEDEKRAIGHDHKGHPHTSYYQYGLGILALCLHQKRVHDSVVDKLLYAVEPFHQGHHSVDTAAMAGLAFTCLKRSNFNPGRRQRITMAIRTVREEILKAQTPEGHFGNVYSTPLALQFLMTSPMRGAELGTACLKARVALLASLQDGAFQNALMISQLLPVLNHKTYIDLIFPDCLAPRVMLEPAAETIPQTQEIISVTLQVLSLLPPYRQSISVLAGSTVEDVLKKAHELGGFTYETQASLSGPYLTSVMGKAAGEREFWQLLRDPNTPLLQGIADYRPKDGETIELRLVSW |  | No cross-reactivity
3 | subtilisin Carlsberg: subtilisin Carlsberg from Bacillus licheniformis (EC 3.4.21.62) (Sigma Aldrich) (protein, UniProt P00780 106-379, looked up) Subtilisin Carlsberg: AQTVPYGIPLIKADKVQAQGFKGANVKVAVLDTGIQASHPDLNVVGGASFVAGEAYNTDGNGHGTHVAGTVAALDNTTGVLGVAPSVSLYAVKVLNSSGSGSYSGIVSGIEWATTNGMDVINMSLGGASGSTAMKQAVDNAYAKGVVVVAAAGNSGSSGNTNTIGYPAKYDSVIAVGAVDSNSNRASFSSVGAELEVMAPGAGVYSTYPTNTYATLNGTSMASPHVAGAAALILSKHPNLSASQVRNRLSSTATYLGSSFYYGKGLINVEAAAQ | most effective | 
